Measurements published in paper PMC8257933.

B1: NTCP wild type, NTCP-FLAG and NTCP-V5-His expressed in HEK293 cells [human] / NTCP wild type, NTCP-FLAG and NTCP-V5-His expressed in HEK293 cells [human] (parent)
chain 1: MEAHNASAPFNFTLPPNFGKRPTDLALSVILVFMLFFIMLSLGCTMEFSKIKAHLWKPKGLAIALVAQYGIMPLTAFVLGKVFRLKNIEALAILVCGCSPGGNLSNVFSLAMKGDMNLSIVMTTCSTFCALGMMPLLLYIYSRGIYDGDLKDKVPYKGIVISLVLVLIPCTIGIVLKSKRPQYMRYVIKGGMIIILLCSVAVTVLSAINVGKSIMFAMTPLLIATSSLMPFIGFLLGYVLSALFCLNGRCRRTVSMETGCQNVQLCSTILNVAFPPEVIGPLFFFPLLYMIFQLGEGLLLIAIFWCYEKFKTPKDKTKMIYTAATTEETIPGALGNGTYKGEDCSPCTA
chain 2: B1 chain 1

Variants of: B1
Test: co-IP (IP anti-FLAG agarose, western blot anti-V5, ImageJ band quantification)
Conditions: with NTCP wild type, HEK293 cells co-transfected with NTCP-FLAG and NTCP-V5-His, n = 3 independent experiments, parent: 100, read off a plot

Variant | percent of parent
chain 1 G60L A64L G233L G237L | 160 % of control
chain 1 G233L G237L | 130 % of control
chain 1 G60L A64L | 110 % of control
